{
  "source": "patent US20220177587A1",
  "about": "“METHODS AND USES OF VARIANT CD80 FUSION PROTEINS AND RELATED CONSTRUCTS” (Alpine Immune Sciences, Inc., priority 2018, published 2022)",
  "key": {"[1]": {"test_system": "huPD-L1 transduced MC38 tumor cells", "assay": "In vitro cytotoxicity to huPD-L1 transduced MC38 tumor cells", "assay_type": "cell-based, mouse", "details": "100 nM or 10 nM; 72 hours; human pan T cells 1:5; FIG. 17", "method": "This Example describes the assessment of in vitro cytotoxicity of huPD-L1 transduced MC38 tumor cells. MC38 tumor cells, non-transduced or transduced with huPD-L1, were treated with Mitomycin-C and plated with human pan T cells labelled with CFSE at a 1:5 ratio. […] As a control, an exemplary anti-PD-1 antibody nivolumab or an Fc (inert) only control also were assessed. Cells were then harvested and stained with 7-AAD viability dye. After acquiring samples on a flow cytometer, the percentage of dead cells was calculated using Flowjo analysis by gating on 7-AAD+ cells in the CFSE− gate."}, "CD28 [2]": {"molecular_target": "T1, CD28 (Homo sapiens, UniProt P10747)", "assay": "Jurkat/IL2 reporter assay: blockade of CD28 costimulation (plate-bound anti-CD3/CD86-Fc)", "assay_type": "cell-based", "design": "host or cells: Jurkat cells expressing an IL-2-luciferase reporter", "details": "Table E5; protein diluted to 40 nM before mixing with cells; 5 hours", "procedure,_shortened": "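Jurkat cells carrying an IL-2–luciferase reporter were preincubated 15 min at room temperature with CD80-Fc fusion molecules, then added to plates coated overnight with anti-CD3 and CD86-Fc. After 5 h at 37 °C, luciferase luminescence was read with Bio-Glo.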"}, "CD28 [3]": {"molecular_target": "T1, CD28", "assay": "Jurkat/IL2 + CHO/OKT3 +/- PD-L1 reporter assay: PD-L1-dependent CD28 costimulation", "assay_type": "cell-based", "design": "host or cells: Jurkat cells expressing an IL-2-luciferase reporter", "details": "luciferase signal", "procedure,_shortened": "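Jurkat reporter cells (100,000/well) preincubated 15 min at room temperature with test protein, then cocultured 5 h at 37 °C with CHO aAPCs bearing anti-CD3 scFv (OKT3) with or without PD-L1. Luciferase luminescence (RLU) read after lysis-substrate addition.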"}, "CD28 [4]": {"molecular_target": "T1, CD28", "assay": "CD28 costimulation via Fc receptor or PD-L1 dependent cross-linking (Jurkat/IL2 + K562/OKT3 +/- PD-L1)", "assay_type": "cell-based", "design": "host or cells: Jurkat cells expressing an IL-2-luciferase reporter", "details": "K562/0KT3 aAPC, luciferase signal", "method": "In a further experiment, CD28 costimulation was assessed for variant CD80-IgV-Fc fusion proteins, where the Fc was an IgG1 Fc (e.g. SEQ ID NO:1517) capable of mediating effector activity via binding to Fc receptors (FcR). The experiment was carried out as described in part A above, except CD32-expressing K562 cells stably transduced with OKT3 (K562/OKT3) or OKT3 and PD-L1 (K562/OKT3/PD-L1) were used instead of the CHO/OKT3 and CHO/OKT3/PD-L1 cells, and the results are depicted in Table E9."}},
  "data": [
    {"molecule": "E35D/M47I/L70M: variant CD80 IgV-Fc, IgV SEQ ID NO:199 (SEQ ID NO:125 in b995) (protein) VIHVTKEVKEVATLSCGHNVSVEELAQTRIYWQKDKKMVLTMMSGDINIWPEYKNRTIFDITNNLSIVIMALRPSDEGTYECVVLKYEKDAFKREHLAEVTLSVKAD", "values": [
      {"measurement": "cytotoxicity (percentage of dead 7-AAD+ tumor cells)", "setting": "[1]", "value": "increased cytotoxicity against huPD-L1 transduced MC38 tumor cells, but not non-transduced MC38 parental cells"},
      {"measurement": "Average Relative Luminescence Units", "setting": "CD28 [2]", "value": "1077 Relative Luminescence Units"},
      {"measurement": "PD-L1-Dependent CD28 Costimulation, +PD-L1, 0.6 nM", "setting": "CD28 [3]; CHO/OKT3/PD-L1 aAPC, 0.6 nM", "value": 1004},
      {"measurement": "PD-L1-Dependent CD28 Costimulation, +PD-L1, 50 nM", "setting": "CD28 [3]; CHO/OKT3/PD-L1 aAPC, 50 nM", "value": 2629},
      {"measurement": "PD-L1-Dependent CD28 Costimulation, No PD-L1, 50 nM", "setting": "CD28 [3]; CHO/OKT3 aAPC, no PD-L1, 50 nM", "value": 600},
      {"measurement": "PD-L1-Dependent CD28 Costimulation, No PD-L1, […]", "setting": "CD28 [3]; CHO/OKT3 aAPC, no PD-L1, […]", "value": 549},
      {"measurement": "CD28 costimulation, FcR Dependent Cross-Linking (No PD-L1), 0.6 nM", "setting": "CD28 [4]; 0.6 nM", "value": 1609},
      {"measurement": "CD28 costimulation, FcR Dependent Cross-Linking (No PD-L1), 50 nM", "setting": "CD28 [4]; 50 nM", "value": 5780}
    ]}
  ]
}
